For assay [1], the target named is HLA-A*02:01. The assay can be described thus: IEDB peptide-MHC binding, purified MHC/direct/fluorescence; filed as Kd, often an IC50 or EC50 that approximates it; ≥ and ≤ were set here for values at or beyond the usual limits of such assays.
Assay [2] has as its target HLA-A*26:01. The assay can be described thus: IEDB peptide-MHC binding, purified MHC/competitive/radioactivity; filed as Kd, often an IC50 or EC50 that approximates it; ≥ and ≤ were set here for values at or beyond the usual limits of such assays.
Assay [3] has as its target HLA-A*30:02. The description is as above.
The target in assay [4] is HLA-A*01:01. The assay is described as above.
Assay [5] concerns the target HLA-A*02:03. Described as above.
In assay [6] the target is HLA-A*02:06. Described as above.
Assay [7] has as its target HLA-A*02:02. The description is as above.
The target of assay [8] is HLA-A*03:01. The assay can be described thus: IEDB peptide-MHC binding, purified MHC/direct/fluorescence; filed as Kd, often an IC50 or EC50 that approximates it; ≥ and ≤ were set here for values at or beyond the usual limits of such assays.
The target in assay [9] is HLA-A*11:01. The assay is described as above. The settings on record: source organism: Coxiella burnetii.
Assay [10] concerns the target HLA-B*58:01. Described as above. The settings on record: source organism: Mammarenavirus juninense.
Assay [11] addresses HLA-A*03:01. Put plainly: IEDB peptide-MHC binding, purified MHC/competitive/radioactivity; filed as Kd, often an IC50 or EC50 that approximates it; ≥ and ≤ were set here for values at or beyond the usual limits of such assays. The settings on record: source organism: Dengue virus 3 Martinique/1243/1999.
Where [12] appears, read: source organism: Mycobacterium tuberculosis.
The mark [13] stands for this setting: source organism: Dengue virus 2 Jamaica/1409/1983.
The mark [14] stands for this setting: source organism: Dengue virus 4 Philippines/H241/1956.
Setting [15] is: source organism: Vaccinia virus WR.
[16] abbreviates: source organism: Dengue virus 1 Brazil/97-11/1997.
[17] abbreviates: source organism: SARS coronavirus Tor2.
Where [18] appears, read: source organism: Mycobacterium tuberculosis variant bovis.
[19] abbreviates: source organism: Lymphocytic choriomeningitis virus (strain Armstrong).
Setting [20] is: source organism: Dengue virus 3 Martinique/1243/1999.

A value given as a limit tells only on which side of the number the result lay.

For the sequence ALAAATPMV, the Kd (in general, the constant that tells how readily two partners part at equilibrium) in [1] (setting [12]) was 5.2 nM.
Same read-out and setting: under ALLDLGWTI stands 0.9 nM.
As for ATMTDDIGM, the Kd in assay [2] (setting [13]) came to 8340 nM.
For AWNFLEVEDY, the Kd in [3] (setting [14]) amounted to 85.3 nM.
As to CSHHFHELV, the Kd in assay [4] (setting [13]) was at least 23400 nM.
Regarding DVIPMVTQL, in [2] (setting [14]), the dissociation constant (Kd) came out at 112 nM.
With DVSLSAYII, the figures for the Kd in assay [5] (setting [15]), in [6] (setting [15]) and in assay [7] (setting [15]) were 755 nM, 4380 nM and 691 nM, respectively.
With DVVDRGWGN, in assay [2] (setting [14]), the Kd is at least 77900 nM.
On the same count and under the same terms, under EFIDGISLGL stands 4720 nM.
EIVSHLRAST: the Kd amounted to 2810 nM in [5] (setting [15]), 12600 nM in assay [6] (setting [15]) and 5150 nM in assay [7] (setting [15]).
In the case of ELSRLRYNL, the Kd in [5] (setting [15]) was determined as 254 nM; in assay [6] (setting [15]) it was 18600 nM; in assay [7] (setting [15]), 0.93 nM.
With ELTSNCTRTT, the Kd stood at 1470 nM in assay [5] (setting [15]), 5720 nM in assay [6] (setting [15]) and 14600 nM in assay [7] (setting [15]).
Take ELWARISSSL: the Kd worked out at 324 nM in [5] (setting [15]), 9290 nM in assay [6] (setting [15]) and 175 nM in assay [7] (setting [15]).
On the same counts, the results for EMKYALINLV are 283 nM, 9830 nM and 1260 nM.
Consider ETTKHAVSRG, for which the Kd in assay [2] (setting [16]) was at least 69700 nM.
For EVDSFSLGL, in assay [4] (source organism: Dengue virus 1 Singapore/S275/1990), the Kd came out at 10500 nM.
Take FIPIIYSKA: the values for the dissociation constant (Kd) in [5] (setting [15]), in assay [6] (setting [15]) and in [7] (setting [15]) were 1.81 nM, 94.6 nM and 0.555 nM, respectively.
Regarding FLFLAWIMLL, the Kd in assay [5] (setting [17]) was 55.7 nM; in assay [6] (setting [17]) it was 1010 nM; in [7] (setting [17]), 18.6 nM.
On the same counts, the results for FLLNKEMYL are 1.13 nM, 1.6 nM and 0.329 nM.
On the same counts, the results for FLTSLLILV are 12 nM, 3.31 nM and 2.17 nM.
FVLALYSPPL: the Kd in [5] (setting [15]) amounted to 38.4 nM; in [6] (setting [15]), 212 nM; in [7] (setting [15]), 2.19 nM.
On the same counts, the results for GLILFVLAL are 452 nM, 7800 nM and 129 nM.
On to GSQPGGPLK, for which, in [8] (setting [18]), the Kd came out at 1570 nM.
Regarding GTDAPCKIPF, the Kd in assay [4] (setting [16]) was at least 44700 nM.
The sequence GVQPSATGR had a Kd in [8] (setting [18]) of at least 20000 nM.
HNASDFYGL: the values for the dissociation constant Kd in [5] (setting [19]), in [6] (setting [19]) and in assay [7] (setting [19]) were at least 78100 nM, at least 21700 nM and 6510 nM, respectively.
Take HVTRGAVLM: the Kd in [2] (setting [13]) was 4890 nM.
Take IAGGMLIACY: in assay [3] (setting [16]), the Kd was 418 nM.
In the case of IAMLKSKNI, the Kd was 846 nM in assay [5] (setting [15]), 10600 nM in [6] (setting [15]) and at least 37700 nM in assay [7] (setting [15]).
Turning to IAVSVYGAIT, the Kd in assay [5] (setting [15]) turned out to be 9240 nM; in assay [6] (setting [15]), 14400 nM; in assay [7] (setting [15]), 7890 nM.
On to ILCGWHLLK, for which the Kd came out at 33.2 nM in assay [8] (source organism: Coxiella burnetii) and 3.8 nM in assay [9].
In [1] (source organism: Alto Paraguay hantavirus), ILQDMRNTI came in with a Kd of 7.6 nM.
Regarding ILSLETVKM, the Kd in [5] (setting [15]) came to 11.8 nM; in assay [6] (setting [15]), 280 nM; in assay [7] (setting [15]), 4.77 nM.
On the same counts, the results for IMAFILGII are 29.8 nM, 175 nM and 17 nM.
As for ITMTTVYHI, the Kd in assay [5] (setting [17]) was determined as 7.21 nM; in assay [6] (setting [17]), 2.31 nM; in assay [7] (setting [17]), 19.2 nM.
Turning to IVNCLSLSNL, the Kd in [5] (setting [15]) came out at 128 nM; in assay [6] (setting [15]), 1280 nM; in assay [7] (setting [15]) it was 338 nM.
For IVPEFAKQYV the same measures were 18.3 nM, 15 nM and 10.3 nM.
The sequence KLDPTNTLW showed a Kd in [10] of 66.9 nM.
As for KLFKRERDAI, the equilibrium dissociation constant (Kd) in assay [5] (setting [15]) is 120 nM; in [6] (setting [15]), 14200 nM; in [7] (setting [15]) it was 92.5 nM.
For the sequence KLLPDTAAV, the Kd in [1] (source organism: Amur virus) was determined as 2.1 nM.
Consider KLMSGKDVFY, for which the results for the dissociation constant (Kd) in [4] (setting [20]), in assay [3] (setting [20]) and in [11] were 1480 nM, at least 69700 nM and 15.9 nM, respectively.
KLYGYASLT: the Kd worked out at 21.5 nM in assay [5] (setting [15]), 1990 nM in [6] (setting [15]) and 75.8 nM in assay [7] (setting [15]).

Source of the values: the Immune Epitope Database (IEDB).
